Consider 2 proteins from patent US20150301024.

This data set addresses hXkr8-GFP (wild-type human Xkr8 fused to GFP at its C-terminus).

B1: recombinant human caspase 3 (protein)
chain: SGISLDNSYKMDYPEMGLCIIINNKNFHKSTGMTSRSGTDVDAANLRETFRNLKYEVRNKNDLTREEIVELMRDVSKEDHSKRSSFVCVLLSHGEEGIIFGTNGPVDLKKITNFFRGDRCRSLTGKPKLFIIQACRGTELDCGIETDSGVDDDMACHKIPVEADFLYAYSTAPGYYSWRNSKDGSWFIQSLCAMLKQYADKLEFMHILTRVNRKVATEFESFSFDATFHAKKQIPCIVSMLTKELYFYH
In the case of B1, the “cleavage of the GFP-fusion protein, Western blot with anti-GFP” value is “caspase 3 and caspase 7 cleaved the wild-type but not 2DA mutant hXkr8”.

B2: recombinant human caspase 7 (protein)
chain: AKPDRSSFVPSLFSKKKKNVTMRSIKTTRDRVPTYQYNMNFEKLGKCIIINNKNFDKVTGMGVRNGTDKDAEALFKCFRSLGFDVIVYNDCSCAKMQDLLKKASEEDHTNAACFACILLSHGEENVIYGKDGVTPIKDLTAHFRGDRCKTLLEKPKLFFIQACRGTELDDGIQADSGPINDTDANPRYKIPVEADFLFAYSTVPGYYSWRSPGRGSWFVQALCSILEEHGKDLEIMQILTRVNDRVARHFESQSDDPHFHEKKQIPCVVSMLTKELYFSQ
With B2, the “cleavage of the GFP-fusion protein, Western blot with anti-GFP” value was “caspase 3 and caspase 7 cleaved the wild-type but not 2DA mutant hXkr8”.
